Assay results from patent US20240287172A1 (SCIRHOM, published 2024).

Legend:
[1] = biological target: T1, hiR1-FL-WT-T7 (human, UniProt Q96CC6 1-855); experiment: FACS on MEF-DKO cells
T1 construct: on MEF-DKO cells
T1 sequence: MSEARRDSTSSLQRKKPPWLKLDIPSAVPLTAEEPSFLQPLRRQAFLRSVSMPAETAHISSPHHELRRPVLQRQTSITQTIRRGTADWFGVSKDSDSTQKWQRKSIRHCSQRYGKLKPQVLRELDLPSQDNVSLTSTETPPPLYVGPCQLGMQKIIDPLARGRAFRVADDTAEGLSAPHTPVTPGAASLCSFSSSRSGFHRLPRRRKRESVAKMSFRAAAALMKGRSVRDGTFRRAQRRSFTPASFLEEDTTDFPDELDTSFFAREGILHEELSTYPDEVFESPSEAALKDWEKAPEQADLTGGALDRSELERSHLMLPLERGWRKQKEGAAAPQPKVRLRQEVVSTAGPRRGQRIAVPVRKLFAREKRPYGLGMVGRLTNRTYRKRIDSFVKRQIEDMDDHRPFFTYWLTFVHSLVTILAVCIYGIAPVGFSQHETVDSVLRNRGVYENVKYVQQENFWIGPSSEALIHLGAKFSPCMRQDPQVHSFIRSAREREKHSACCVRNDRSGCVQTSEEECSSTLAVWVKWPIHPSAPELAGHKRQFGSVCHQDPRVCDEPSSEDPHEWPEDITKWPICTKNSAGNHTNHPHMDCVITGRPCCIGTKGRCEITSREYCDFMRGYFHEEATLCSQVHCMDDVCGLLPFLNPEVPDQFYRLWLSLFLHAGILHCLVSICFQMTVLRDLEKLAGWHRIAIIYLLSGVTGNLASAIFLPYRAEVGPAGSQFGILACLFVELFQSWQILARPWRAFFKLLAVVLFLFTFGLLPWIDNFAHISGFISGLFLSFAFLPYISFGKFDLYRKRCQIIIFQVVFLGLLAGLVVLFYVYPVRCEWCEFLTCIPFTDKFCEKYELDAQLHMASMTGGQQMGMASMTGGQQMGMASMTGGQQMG

[2] = biological target: T2, hiR2-FL-R543Q-T7 (human, UniProt Q6PJF5 1-856); experiment: FACS on MEF-DKO cells
T2 sequence: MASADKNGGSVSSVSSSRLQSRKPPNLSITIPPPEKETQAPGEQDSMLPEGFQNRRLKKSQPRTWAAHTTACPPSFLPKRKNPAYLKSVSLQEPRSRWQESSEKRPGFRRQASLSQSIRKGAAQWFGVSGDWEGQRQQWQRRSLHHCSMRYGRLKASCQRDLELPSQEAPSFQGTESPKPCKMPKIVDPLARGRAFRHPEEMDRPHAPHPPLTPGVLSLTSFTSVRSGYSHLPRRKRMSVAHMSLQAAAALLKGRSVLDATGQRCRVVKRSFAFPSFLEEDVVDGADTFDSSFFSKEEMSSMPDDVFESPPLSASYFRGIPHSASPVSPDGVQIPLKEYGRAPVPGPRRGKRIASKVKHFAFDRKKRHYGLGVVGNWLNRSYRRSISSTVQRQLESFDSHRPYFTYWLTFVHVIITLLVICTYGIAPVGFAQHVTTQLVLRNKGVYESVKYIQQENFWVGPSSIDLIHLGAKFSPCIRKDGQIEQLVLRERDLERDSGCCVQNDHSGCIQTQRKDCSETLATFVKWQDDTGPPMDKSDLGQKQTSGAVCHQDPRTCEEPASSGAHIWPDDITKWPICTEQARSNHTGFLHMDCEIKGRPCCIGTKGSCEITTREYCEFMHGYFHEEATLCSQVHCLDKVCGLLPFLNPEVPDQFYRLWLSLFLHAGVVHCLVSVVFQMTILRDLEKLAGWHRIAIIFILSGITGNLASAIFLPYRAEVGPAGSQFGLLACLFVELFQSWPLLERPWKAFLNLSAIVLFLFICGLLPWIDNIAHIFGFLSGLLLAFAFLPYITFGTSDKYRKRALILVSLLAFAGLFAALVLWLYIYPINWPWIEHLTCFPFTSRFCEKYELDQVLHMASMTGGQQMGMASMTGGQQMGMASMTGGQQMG

B1: antibody 16 (antibody, V domains shown)
VH: QVTLKESGPGILQPSQTLSLTCSFSGFSLSTFALGVGWIRQPSGRGLEWLAHIWWDDDKYYNPALKSRLTISKDTSKNHVFLKIANVDTADTATYYCARITTYYYGMDYWGQGTSVTVSS
VL: DIVLSQSPATLSVTPGDSVSLFCRASQSIGNHLHWYQQESHASPRLLIKYASQSISGIPSRFSGSGSGTDFTLSINSVETEDFGMYFCQQSYNWPLTFGAGTKLELK
notes: mouse IgG, kappa light chain; also called clone #16; purified antibody 16
binding result [1]: no binding (tested: 3 µg/ml)

B2: antibody 5 (antibody, V domains shown)
VH: QVTLKESGPGILQPSQTLSLTCSFSGFSLSTFGMGVGWIRQPSGKGLEWLAHIWWDDEKYYNSALKSRLTISKATSKNQAFLKIANVDTADTATYYCARISNYGSNYWYFNVWGTGTTVTVSS
VL: QVVLTQSPALMSASPGEKVTMTCSAGSSVSCMYWYQQKPGSSPRVLIYDTSNLASGVPARFTGSGSGTSYSLTISRMEAEDAASYYCQQWNSYPLTFGAGTKLELK
notes: mouse IgG, kappa light chain; also called clone #5; purified antibody 5
binding result [1]: no binding (tested: 3 µg/ml)
binding result [2]: no binding (tested: 3 µg/ml)

B3: antibody 43 (antibody, V domains shown)
VH: QVALKESGPGILQPSQTLSLTCSFSGFSLSTFGMGVGWIRQSSGKGLEWLANIWWDDDKYYNPALKSRLTISKDASKNQAFLKIANVDTADTATYYCARIGNYGSNYWYFDVWGTGTTVTVSS
VL: QIVLTQSPAIMSASPGERVTMTCSANSRISYMYWYQQKPGSSPRLLIYDTSNLASGVPVRFSGSGSGTSYSLTISRMEAEDAATYNCQQWSSYPLTFGAGTKLELK
notes: mouse IgG, kappa light chain; also called clone #43; purified antibody 43
binding result [2]: no binding (tested: 3 µg/ml)

B4: antibody 42 (antibody, V domains shown)
VH: QVTLKESGPGILQPSQTLSLTCSLSGFSLSTFGRGVGWIRQPSGKGLEWLAHIWWDDEKYYNPALKSRLTISKDTSKNQVFLRIANVDTADTATYYCARIQNYGSNYWYFDVWGTGTTVTVSS
VL: LIVLTQSPAIMSASPGEKVTMTCGATSRISYMFWYQQKPGSSPRVLIYDTSNLASGVPVRFSGSGSGTSYSLTISRVEAEDVATYYCQQWNSYPLTFGAGTKLELK
notes: mouse IgG, kappa light chain; also called clone #42; purified antibody 42
binding result [2]: no binding (tested: 3 µg/ml)

B5: antibody 22 (antibody, V domains shown)
VH: QVTLKESGPGILQPSQTLSLTCSFSGFSLSTFGMGVGWIRQPSGKGLEWLAHIWWDDEKYYNSALKSRLTISKATSKNQVFLKIANVDTADTATYYCARISNYGSNYWYFNVWGTGTTVTVSS
VL: QVVLTQSPALMSASPGEKVTMTCSAGSSVSYMYWYQQKPGSSPRVLIYDTSNLASGVPARFTGSGSGTSYSLTISRMEAEDAATYYCQQWNSYPLTFGAGTKLELK
notes: mouse IgG, kappa light chain; also called clone #22; purified antibody 22
binding result [1]: no binding (tested: 3 µg/ml)

B6: antibody 34 (antibody, V domains shown)
VH: QVTLKESGPGILQPSQTLSLTCSFSGFSLSTFSLGVGWIRQSSGKGLEWLAHIWWDDEKYYNPALKSRLTISKDTSKNQVFLKIANVDAADTATYYCARAYYSKSYYALDYWGQGTSVTVSS
VL: DIQMTQSPSSLSASLGERVSLTCRASQEISGYLSWLQQKPDGTIKRLIYAASTLDSGVPKRFSGSRSGSDYSLAISSLESEDFADYYCLQYANFPFTFGSGTKLEIK
notes: mouse IgG, kappa light chain; also called clone #34; purified antibody 34
binding result [2]: no binding (tested: 3 µg/ml)
